How the values were obtained:
[1] = molecular target: Asp143 (UniProt position 143, LSGFVDGTENP); test: kinetics; details: 25 °C; 2 µM enzyme in 5 mM phosphate citrate buffer, pH 7.0, mixed with H2O2 in 100 mM phosphate citrate buffer, pH 3.0-8.0, or 100 mM glycine NaOH buffer, pH 8.0-10.0; ferric high-spin resting enzyme, folded, reacting with H2O2
[2] = molecular target: KpDyP double variant D143A/R232A (Klebsiella pneumoniae); test: SEC-MALS; HPLC-SEC combined with multiangle light scattering; data not shown; conditions not given
[3] = molecular target: KpDyP variant D143A (Klebsiella pneumoniae); test: as above
[4] = molecular target: KpDyP variant R232A (Klebsiella pneumoniae); test: as above
[5] = molecular target: the molecule itself; test: as above

Question: With “B-class dye-decolorizing peroxidase (KpDyP) (Klebsiella pneumoniae)” as the molecule, how does the pKa [1] read?
Answer: Its pKa is “far below 4.0”.

Question: How did the stoichiometry N [2] turn out when “KpDyP double variant D143A/R232A (enzyme)” was run?
Answer: The stoichiometry N was 2.

Question: How did the stoichiometry N [3] turn out when KpDyP variant D143A (enzyme) was run?
Answer: The stoichiometry N was 2.

Question: For KpDyP variant R232A (enzyme), which stoichiometry N [4] is on record?
Answer: The stoichiometry N was 2.

B1: WT B-class dye-decolorizing peroxidase from Klebsiella pneumoniae (KpDyP) (enzyme, UniProt A0A0W8ATM9 1-299, looked up)
chain: MSQVQSGILPEHCRAAIWIEANLKGDVNALREASKIFVDNVATFQAKFPDAKLGAVVAFGNNVWRQLSGGEGADELKDFPVYGKGLAPSTQYDLLIHILSARHEVNFSVAQAALAAFGDAIDVKEEIHGFRWVEERDLSGFVDGTENPAGEETRREVAVIKDGVDAGGSYVFVQRWEHNLKQLNRMSVPDQEMMIGRTKDANEEIDGDERPVTSHLSRVDLKEDGKGLKIVRQSLPYGTASGTHGLYFCAYCARLYNIEQQLLSMFGDTDGKRDAMLRFTKPVTGGYYFAPSLERIQAL
notes: B-class dye-decolorizing peroxidase (KpDyP), Klebsiella pneumoniae; codon-optimized DNA cloned into pGEX-6P1 with primers that run from the ATG start to the stop codon; about 35 kDa per subunit; One heme b per subunit; also called WT KpDyP; source: E. coli BL21 (DE3) pLysS, purified (GSTrap, on-column HRV 3C cleavage, SEC)
Question: B1 was tested. Which “stoichiometry N” value [5] did it give?
Answer: The value was 2.

Reference: paper PMC6153280, “Roles of distal aspartate and arginine of B-class dye-decolorizing peroxidase in heterolytic hydrogen peroxide cleavage” (The Journal of Biological Chemistry, 2018)
